Sequences and labels used below:
B1: (RS)8 (peptide)
chain: RSRSRSRSRSRSRSRS
modifications: Expanded from the printed formula (RS)8; any flanking residues or end caps are not stated
B2: ASF(RRM1) (domain or fragment)
chain: MSGGGVIRGPAGNNDCRIYVGNLPPDIRTKDIEDVFYKYGAIRDIDLKNRRGGPPFAFVEFEDPRDAEDAVYGRDGYDYDGYRLRVEFPRS
B3: ASF(RRM2) (domain or fragment)
chain: NRVVVSGLPPSGSWQDLKDHMREAGDVCYADVYRDGTGVVEFVRKEDMTYAVRKLDNTKFRSHEGETAYIRVKVDGPRSPSYG
B4: (RS)16 (peptide)
chain: RSRSRSRSRSRSRSRSRSRSRSRSRSRSRSRS
modifications: Expanded from the printed formula (RS)16; any flanking residues or end caps are not stated
B5: ASF(ΔRRM1)-His (domain or fragment)
chain: GGAPRGRYGPPSRRSENRVVVSGLPPSGSWQDLKDHMREAGDVCYADVYRDGTGVVEFVRKEDMTYAVRKLDNTKFRSHEGETAYIRVKVDGPRSPSYGRSRSRSRSRSRSRSRSNSRSRSYSPRRSRGSPRYSPRHSRSRSRT
B6: ASF(RS12)-His (domain or fragment)
chain: PRSPSYGRSRSRSRSRSRSRSRSNSRSRSYSPRRSRGSPRYSPRHSRSRSRT
B7: ASF(ΔRRM12)-His (domain or fragment)
chain: GPRSPSYGRSRSRSRSRSRSRSRSNSRSRSYSPRRSRGSPRYSPRHSRSRSRT

Where “and” joins values, the source holds several entries; their conditions need not be identical. Identical values can stand only once.

In one experiment the target is T1, SRPK1 (UniProt Q96SB4 1-655). Put plainly: kinase competition assay.
T1 sequence (Q96SB4 whole entry): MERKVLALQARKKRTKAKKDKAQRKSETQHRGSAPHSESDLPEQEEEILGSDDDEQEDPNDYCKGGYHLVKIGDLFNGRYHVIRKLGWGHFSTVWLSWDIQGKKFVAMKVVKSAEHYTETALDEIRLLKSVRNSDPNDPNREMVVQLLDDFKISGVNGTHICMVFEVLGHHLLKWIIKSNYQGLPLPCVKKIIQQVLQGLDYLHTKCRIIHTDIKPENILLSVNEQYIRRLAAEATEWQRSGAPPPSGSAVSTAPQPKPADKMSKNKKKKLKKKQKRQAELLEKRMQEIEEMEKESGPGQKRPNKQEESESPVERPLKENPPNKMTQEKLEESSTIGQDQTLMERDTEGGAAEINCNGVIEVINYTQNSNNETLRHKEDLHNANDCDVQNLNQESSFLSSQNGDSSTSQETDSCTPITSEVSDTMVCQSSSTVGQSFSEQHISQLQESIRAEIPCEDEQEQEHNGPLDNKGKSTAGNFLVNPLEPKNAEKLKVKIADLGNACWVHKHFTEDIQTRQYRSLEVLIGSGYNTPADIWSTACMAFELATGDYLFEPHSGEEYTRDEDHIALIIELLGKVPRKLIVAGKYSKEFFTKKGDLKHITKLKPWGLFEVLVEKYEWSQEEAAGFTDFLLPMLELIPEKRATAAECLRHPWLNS
On to B1, for which the inhibitory constant (Ki) was 1800 nM and 1600 nM.

In turn, B2 displayed a Ki of 1600 ± 400 nM.

In the case of B3, the Ki was determined as 6300 ± 1900 nM.

B4 showed a Ki of 160 ± 41 nM.

The target of a further experiment is SRPK1 (UniProt Q96SB4). Put plainly: kinase competition assay.
SRPK1 (UniProt Q96SB4), sequence (Q96SB4 whole entry): as above
On to “Block 2/3 (from UniProt Q07955 1-248) (natural protein)”, for which the Ki came out at 45 nM. In other words, the double-digit nanomolar range.

On to “Block 3/4 (from UniProt Q07955 1-248) (natural protein)”, for which the Ki came out at 120 nM. This Ki is about 2.7-fold higher than that of the molecule before.

“Block 1/2 (from UniProt Q07955 1-248) (natural protein)” showed a Ki of 40 nM.

ASF(ΔRS2) (domain or fragment) had an inhibition constant (Ki) of 170 nM. This Ki lies about 4.2-fold higher than the previous one.

For ASF(ΔRS) (domain or fragment), the Ki worked out at 180 nM. The Ki values of the last two molecules are within 1.5-fold of each other.

For the next experiment, the target named is T1, SRPK1. Put plainly: kinase competition assay. The source holds these as a separate data set.
Molecule B5 came in with a Ki of 54 ± 5 nM.

B6 displayed a Ki of 190 ± 13 nM.

The molecule B7 registered a Ki of 70 ± 15 nM. Compared with the last molecule, the Ki is about 2.7-fold lower.
